For one substance, percent cell-bound activity results are on record in article PMC8983440.

This assay has as its target IFN-receptor expressed by 38C13 cells (mouse (endogenous in 38C13)) (UniProt P33896). Kind of assay: radioligand binding.
Chain of UniProt P33896 (P33896 27-590, chain 1 of 2): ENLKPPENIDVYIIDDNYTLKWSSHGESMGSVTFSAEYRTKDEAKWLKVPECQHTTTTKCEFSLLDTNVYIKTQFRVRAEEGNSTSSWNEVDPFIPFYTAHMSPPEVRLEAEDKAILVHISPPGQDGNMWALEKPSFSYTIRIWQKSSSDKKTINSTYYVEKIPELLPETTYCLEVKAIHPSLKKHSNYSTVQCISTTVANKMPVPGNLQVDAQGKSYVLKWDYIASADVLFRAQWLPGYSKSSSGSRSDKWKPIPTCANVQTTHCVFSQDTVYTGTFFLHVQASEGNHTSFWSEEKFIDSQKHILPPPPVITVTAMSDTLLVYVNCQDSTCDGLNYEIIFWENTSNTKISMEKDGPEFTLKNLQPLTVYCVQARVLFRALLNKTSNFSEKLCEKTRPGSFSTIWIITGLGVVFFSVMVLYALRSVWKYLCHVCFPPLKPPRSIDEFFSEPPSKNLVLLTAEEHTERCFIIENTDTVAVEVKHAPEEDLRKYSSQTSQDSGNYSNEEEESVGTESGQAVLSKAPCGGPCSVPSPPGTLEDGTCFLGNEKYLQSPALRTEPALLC
Chain of UniProt P33896 (O35664 22-513, chain 2 of 2, further chain): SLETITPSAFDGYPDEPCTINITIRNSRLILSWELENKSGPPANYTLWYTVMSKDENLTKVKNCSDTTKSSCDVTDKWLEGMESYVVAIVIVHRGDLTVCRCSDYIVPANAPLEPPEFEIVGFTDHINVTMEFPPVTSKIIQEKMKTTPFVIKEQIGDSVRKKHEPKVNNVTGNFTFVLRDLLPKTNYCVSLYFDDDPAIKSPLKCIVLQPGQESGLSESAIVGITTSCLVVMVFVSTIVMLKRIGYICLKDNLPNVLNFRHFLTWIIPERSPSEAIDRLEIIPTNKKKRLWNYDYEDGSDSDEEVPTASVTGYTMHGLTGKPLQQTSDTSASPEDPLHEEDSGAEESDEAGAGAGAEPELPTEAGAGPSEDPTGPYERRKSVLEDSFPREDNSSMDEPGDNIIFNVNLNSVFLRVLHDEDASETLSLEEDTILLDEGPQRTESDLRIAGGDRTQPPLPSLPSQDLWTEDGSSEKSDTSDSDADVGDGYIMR

Turning to “anti-CD20 rituximab-murine IFNα1 fusion protein (from UniProt P01572 24-189)”, the percent cell-bound activity amounted to 44.6%.
